B1: N-13-H; numbered along this chain (parent)
chain: EASNCFAIRHFENKFAVETLICFNLFLNSQEKHY

± gives the uncertainty stated by the source.

The variants in this data set derive from B1. The data set can be described thus: amyloid nucleation score relative to WT ADan (yeast Sup35 reporter selection) (log enrichment difference); higher = more amyloid nucleation. As for the experimental part: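 Deep mutational scan of the ADan peptide fused to the Sup35 nucleation domain (SupN) in S. cerevisiae [psi-pin-], covering all single amino-acid substitutions and stop truncations (truncations = sequence up to the stop). After 24 h Cu2+ induction, cells were selected on -ADE-URA plates for 7 d at 30 °C. The nucleation score is log enrichment (output/input, deep sequencing) minus that of WT ADan, as the error-weighted mean of 3 biological replicates (DiMSum).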
For the variant EASNCFAIRHFEHKFAVETLICFNLFLNSQEKHY, the amyloid nucleation score was -1.45 ± 0.23.
With EASNCFAIRHFEWKFAVETLICFNLFLNSQEKHY the figure was -0.378 ± 0.12.
With EASNCFAIRHFELKFAVETLICFNLFLNSQEKHY the figure was -0.652 ± 0.086; with EASNCFAIRHFEYKFAVETLICFNLFLNSQEKHY, -1.67 ± 0.15; with EASNCFAIRHFERKFAVETLICFNLFLNSQEKHY, -1.97 ± 0.1.
Turning to EASNCFAIRHFETKFAVETLICFNLFLNSQEKHY, the amyloid nucleation score is -0.39 ± 0.11.
Under EASNCFAIRHFEVKFAVETLICFNLFLNSQEKHY stands 0.195 ± 0.09; under EASNCFAIRHFEAKFAVETLICFNLFLNSQEKHY, -0.453 ± 0.12; under EASNCFAIRHFEKKFAVETLICFNLFLNSQEKHY, -0.309 ± 0.14.
Under EASNCFAIRHFEDKFAVETLICFNLFLNSQEKHY stands 0.0178 ± 0.13; under EASNCFAIRHFEGKFAVETLICFNLFLNSQEKHY, 1.19 ± 0.082.
Under EASNCFAIRHFEIKFAVETLICFNLFLNSQEKHY stands -0.0116 ± 0.13; under EASNCFAIRHFEFKFAVETLICFNLFLNSQEKHY, -0.221 ± 0.11.
As for EASNCFAIRHFENKFEVETLICFNLFLNSQEKHY, the amyloid nucleation score was 1.02 ± 0.13.
Under EASNCFAIRHFENKFDVETLICFNLFLNSQEKHY stands 0.736 ± 0.15; under EASNCFAIRHFENKFCVETLICFNLFLNSQEKHY, 0.159 ± 0.14; under EASNCFAIWHFENKFAVETLICFNLFLNSQEKHY, -0.819 ± 0.14.
Under EASNCFAIMHFENKFAVETLICFNLFLNSQEKHY stands 0.735 ± 0.17; under EASNCFAIAHFENKFAVETLICFNLFLNSQEKHY, 0.274 ± 0.14; under EASNCFAISHFENKFAVETLICFNLFLNSQEKHY, 0.143 ± 0.12.
With EASNCFAIQHFENKFAVETLICFNLFLNSQEKHY the figure was 0.474 ± 0.17.
With EASNCFAIEHFENKFAVETLICFNLFLNSQEKHY, the amyloid nucleation score was -0.741 ± 0.17.
For EASNCFAIHHFENKFAVETLICFNLFLNSQEKHY, the amyloid nucleation score was -0.0444 ± 0.26.
Under EASNCFAIGHFENKFAVETLICFNLFLNSQEKHY stands 0.614 ± 0.11.
For EASNCFAITHFENKFAVETLICFNLFLNSQEKHY, the amyloid nucleation score was 0.386 ± 0.17.
Under EASNCFAIVHFENKFAVETLICFNLFLNSQEKHY stands -0.535 ± 0.12; under EASNCFAIYHFENKFAVETLICFNLFLNSQEKHY, 0.0138 ± 0.19.
With EASNCFAIDHFENKFAVETLICFNLFLNSQEKHY the figure was 0.286 ± 0.17.
On to EASNCFAICHFENKFAVETLICFNLFLNSQEKHY, for which the amyloid nucleation score is 0.0357 ± 0.14.
Under EASNCFAILHFENKFAVETLICFNLFLNSQEKHY stands -0.614 ± 0.12.
Turning to EASNCFAIFHFENKFAVETLICFNLFLNSQEKHY, the amyloid nucleation score was -0.221 ± 0.19.
With EASNCFAIKHFENKFAVETLICFNLFLNSQEKHY the figure was -0.189 ± 0.19; with EASNCFAINHFENKFAVETLICFNLFLNSQEKHY, 0.528 ± 0.27.
With EASNCFAIIHFENKFAVETLICFNLFLNSQEKHY, the amyloid nucleation score was -0.484 ± 0.22.
With EASNCFAIRHFENTFAVETLICFNLFLNSQEKHY the figure was 0.665 ± 0.1; with EASNCFAIRHFENSFAVETLICFNLFLNSQEKHY, 0.341 ± 0.075.
Under EASNCFAIRHFENFFAVETLICFNLFLNSQEKHY stands 0.137 ± 0.11; under EASNCFAIRHFENCFAVETLICFNLFLNSQEKHY, 0.65 ± 0.11.
As for EASNCFAIRHFENPFAVETLICFNLFLNSQEKHY, the amyloid nucleation score worked out at 0.000567 ± 0.15.
With EASNCFAIRHFENDFAVETLICFNLFLNSQEKHY the figure was 0.152 ± 0.13; with EASNCFAIRHFENGFAVETLICFNLFLNSQEKHY, -0.903 ± 0.091.
As to EASNCFAIRHFENHFAVETLICFNLFLNSQEKHY, the amyloid nucleation score stood at 1.04 ± 0.14.
Turning to EASNCFAIRHFENRFAVETLICFNLFLNSQEKHY, the amyloid nucleation score was -0.195 ± 0.084.
For EASNCFAIRHFENVFAVETLICFNLFLNSQEKHY, the amyloid nucleation score stood at 0.207 ± 0.08.
For the variant EASNCFAIRHFENIFAVETLICFNLFLNSQEKHY, the amyloid nucleation score was found to be 0.391 ± 0.12.
With EASNCFAIRHFENEFAVETLICFNLFLNSQEKHY the figure was 0.00624 ± 0.12; with EASNCFAIRHFENMFAVETLICFNLFLNSQEKHY, 0.629 ± 0.11; with EASNCFAIRHFENLFAVETLICFNLFLNSQEKHY, 0.488 ± 0.073.
With EASNCFAIRHFENQFAVETLICFNLFLNSQEKHY the figure was 0.601 ± 0.13.
Under EASNCFAIRHFENAFAVETLICFNLFLNSQEKHY stands 0.253 ± 0.096; under EASNCFAIRHFENWFAVETLICFNLFLNSQEKHY, 0.0928 ± 0.12; under EASNCFAIRHFENYFAVETLICFNLFLNSQEKHY, 0.185 ± 0.11.
For the variant EASNCFAIRHFENNFAVETLICFNLFLNSQEKHY, the amyloid nucleation score amounted to 0.701 ± 0.12.
Under EASNCFAIRHLENKFAVETLICFNLFLNSQEKHY stands 0.0755 ± 0.086.
With EASNCFAIRHSENKFAVETLICFNLFLNSQEKHY, the amyloid nucleation score was -0.135 ± 0.099.
Under EASNCFAIRHPENKFAVETLICFNLFLNSQEKHY stands 0.683 ± 0.19; under EASNCFAIRHTENKFAVETLICFNLFLNSQEKHY, 0.236 ± 0.13; under EASNCFAIRHNENKFAVETLICFNLFLNSQEKHY, -0.169 ± 0.18.
For the variant EASNCFAIRHDENKFAVETLICFNLFLNSQEKHY, the amyloid nucleation score is -0.0408 ± 0.15.
Under EASNCFAIRHVENKFAVETLICFNLFLNSQEKHY stands 0.671 ± 0.087; under EASNCFAIRHCENKFAVETLICFNLFLNSQEKHY, 0.247 ± 0.15; under EASNCFAIRHQENKFAVETLICFNLFLNSQEKHY, 0.646 ± 0.18.
For the variant EASNCFAIRHWENKFAVETLICFNLFLNSQEKHY, the amyloid nucleation score is -0.14 ± 0.13.
Under EASNCFAIRHEENKFAVETLICFNLFLNSQEKHY stands 0.0736 ± 0.14; under EASNCFAIRHKENKFAVETLICFNLFLNSQEKHY, 0.435 ± 0.17.
In the case of EASNCFAIRHGENKFAVETLICFNLFLNSQEKHY, the amyloid nucleation score stood at 0.144 ± 0.091.
Consider EASNCFAIRHHENKFAVETLICFNLFLNSQEKHY, for which the amyloid nucleation score was -0.0333 ± 0.17.
With EASNCFAIRHMENKFAVETLICFNLFLNSQEKHY the figure was 0.968 ± 0.15; with EASNCFAIRHYENKFAVETLICFNLFLNSQEKHY, 0.379 ± 0.14.
In the case of EASNCFAIRHAENKFAVETLICFNLFLNSQEKHY, the amyloid nucleation score turned out to be 0.14 ± 0.13.
With EASNCFAIRHIENKFAVETLICFNLFLNSQEKHY the figure was 0.216 ± 0.14.
Take EASNCFAIRHRENKFAVETLICFNLFLNSQEKHY: the amyloid nucleation score is 0.366 ± 0.095.

The values above are taken from the supplement of paper PMC12067230.
